In US12467929:
One block for each substance: values may come before it.

Experiments:
[1] = biological target: recombinant UBE3A protein (Homo sapiens (Human)) (UniProt Q05086); test: 3-step Simoa; capture Novus; UBE3A 0.01 ng/ml
[2] = biological target: recombinant UBE3A protein (Homo sapiens (Human)) (UniProt Q05086); test: 3-step Simoa; capture GTX; UBE3A 0.01 ng/ml
[3] = biological target: recombinant UBE3A protein (Homo sapiens (Human)) (UniProt Q05086); test: 3-step Simoa; capture Novus; UBE3A 1 ng/ml
[4] = biological target: recombinant UBE3A protein (Homo sapiens (Human)) (UniProt Q05086); test: 3-step Simoa; capture MS 2F6; UBE3A 10 ng/ml
[5] = biological target: recombinant UBE3A protein (Homo sapiens (Human)) (UniProt Q05086); test: 3-step Simoa; capture GTX; UBE3A 0.1 ng/ml
[6] = biological target: recombinant UBE3A protein (Homo sapiens (Human)) (UniProt Q05086); test: 2-step Simoa; capture GTX; UBE3A 1 ng/ml
[7] = biological target: recombinant UBE3A protein (Homo sapiens (Human)) (UniProt Q05086); test: 2-step Simoa; capture Novus; UBE3A 0.1 ng/ml
[8] = biological target: recombinant UBE3A protein (Homo sapiens (Human)) (UniProt Q05086); test: 2-step Simoa; capture MS 2F6; UBE3A 10 ng/ml
[9] = biological target: recombinant UBE3A protein (Homo sapiens (Human)) (UniProt Q05086); test: Simoa head-to-head, Table 10; capture GTX; UBE3A 20.0 ng/ml
[10] = biological target: recombinant UBE3A protein (Homo sapiens (Human)) (UniProt Q05086); test: 2-step Simoa; capture GTX; UBE3A 0.01 ng/ml
[11] = biological target: recombinant UBE3A protein (Homo sapiens (Human)) (UniProt Q05086); test: 3-step Simoa; capture GTX; UBE3A 10 ng/ml
[12] = biological target: recombinant UBE3A protein (Homo sapiens (Human)) (UniProt Q05086); test: 2-step Simoa; capture Novus; UBE3A 1 ng/ml
[13] = biological target: recombinant UBE3A protein (Homo sapiens (Human)) (UniProt Q05086); test: 2-step Simoa; capture Novus; UBE3A 0.01 ng/ml
[14] = biological target: recombinant UBE3A protein (Homo sapiens (Human)) (UniProt Q05086); test: 3-step Simoa; capture GTX; UBE3A 1 ng/ml
[15] = biological target: recombinant UBE3A protein (Homo sapiens (Human)) (UniProt Q05086); test: 2-step Simoa; capture GTX; UBE3A 10 ng/ml
[16] = biological target: recombinant UBE3A protein (Homo sapiens (Human)) (UniProt Q05086); test: 2-step Simoa; capture MS 2F6; UBE3A 0.01 ng/ml
[17] = biological target: recombinant UBE3A protein (Homo sapiens (Human)) (UniProt Q05086); test: 2-step Simoa; capture Novus; UBE3A 10 ng/ml
[18] = biological target: recombinant UBE3A protein (Homo sapiens (Human)) (UniProt Q05086); test: 3-step Simoa; capture Novus; UBE3A 0.1 ng/ml
[19] = biological target: recombinant UBE3A protein (Homo sapiens (Human)) (UniProt Q05086); test: 2-step Simoa; capture MS 2F6; UBE3A 1 ng/ml
[20] = biological target: recombinant UBE3A protein (Homo sapiens (Human)) (UniProt Q05086); test: 3-step Simoa; capture Novus; UBE3A 10 ng/ml
[21] = biological target: recombinant UBE3A protein (Homo sapiens (Human)) (UniProt Q05086); test: 3-step Simoa; capture MS 2F6; UBE3A 1 ng/ml
[22] = biological target: recombinant UBE3A protein (Homo sapiens (Human)) (UniProt Q05086); test: 2-step Simoa; capture MS 2F6; UBE3A 0.1 ng/ml
[23] = biological target: recombinant UBE3A protein (Homo sapiens (Human)) (UniProt Q05086); test: 3-step Simoa; capture MS 2F6; UBE3A 0.1 ng/ml

Sequence of UniProt Q05086 (Q05086 whole entry): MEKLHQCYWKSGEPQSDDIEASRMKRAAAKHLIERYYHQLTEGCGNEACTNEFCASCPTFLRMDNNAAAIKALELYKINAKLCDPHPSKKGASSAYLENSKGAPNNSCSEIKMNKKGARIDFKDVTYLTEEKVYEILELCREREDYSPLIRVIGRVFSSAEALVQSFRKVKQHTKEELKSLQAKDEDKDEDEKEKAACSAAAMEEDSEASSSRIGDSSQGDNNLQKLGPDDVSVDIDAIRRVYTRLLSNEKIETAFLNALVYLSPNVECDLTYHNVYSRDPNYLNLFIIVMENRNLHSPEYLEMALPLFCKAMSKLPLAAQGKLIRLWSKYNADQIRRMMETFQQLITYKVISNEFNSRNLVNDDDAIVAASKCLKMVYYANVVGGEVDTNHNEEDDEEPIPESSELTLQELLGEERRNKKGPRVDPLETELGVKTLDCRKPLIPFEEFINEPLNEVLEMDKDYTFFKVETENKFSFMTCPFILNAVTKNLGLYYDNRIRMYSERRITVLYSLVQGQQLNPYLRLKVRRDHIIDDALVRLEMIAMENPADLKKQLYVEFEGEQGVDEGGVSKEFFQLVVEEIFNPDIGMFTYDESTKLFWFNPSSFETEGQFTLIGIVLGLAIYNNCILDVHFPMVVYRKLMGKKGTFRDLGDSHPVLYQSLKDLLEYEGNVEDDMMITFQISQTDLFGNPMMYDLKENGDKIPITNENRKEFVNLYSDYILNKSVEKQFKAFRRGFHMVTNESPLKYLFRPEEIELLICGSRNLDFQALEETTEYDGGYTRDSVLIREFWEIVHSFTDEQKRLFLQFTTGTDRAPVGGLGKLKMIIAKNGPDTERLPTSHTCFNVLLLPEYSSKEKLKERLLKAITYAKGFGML

AEB1 [1]: 0.011 | AEB2 [1]: 0.0112 | Ave AEB [1]: 0.0111 | Signal to Background [1]: 1.06 | AEB1 [2]: 0.0064 | AEB2 [2]: 0.0053 | Ave AEB [2]: 0.0059 | Signal to Background [2]: 0.96 | AEB1 [3]: 0.0125 | AEB2 [3]: 0.0145 | Ave AEB [3]: 0.0135 | Signal to Background [3]: 1.29 | AEB1 [4]: 0.0153 | AEB2 [4]: 0.0116 | Ave AEB [4]: 0.0134 | Signal to Background [4]: 1.54 | AEB1 [5]: 0.005 | AEB2 [5]: 0.0068 | Ave AEB [5]: 0.0059 | Signal to Background [5]: 0.97 | AEB1 [6]: 0.0247 | AEB2 [6]: 0.0237 | Ave AEB [6]: 0.0242 | Signal to Background [6]: 3.26 | AEB1 [7]: 0.0167 | AEB2 [7]: 0.0132 | Ave AEB [7]: 0.0149 | Signal to Background [7]: 0.9 | AEB1 [8]: 0.0437 | AEB2 [8]: 0.0449 | Ave AEB [8]: 0.0443 | Signal to Background [8]: 2.7 | AEB1 [9]: 0.132 | AEB2 [9]: 0.131 | Ave AEB [9]: 0.132 | Signal to Background [9]: 63.2 | AEB1 [10]: 0.0082 | AEB2 [10]: 0.0072 | Ave AEB [10]: 0.0077 | Signal to Background [10]: 1.04 | AEB1 [11]: 0.0356 | AEB2 [11]: 0.0426 | Ave AEB [11]: 0.0391 | Signal to Background [11]: 6.42 | AEB1 [12]: 0.0174 | AEB2 [12]: 0.0179 | Ave AEB [12]: 0.0177 | Signal to Background [12]: 1.06 | AEB1 [13]: 0.0255 | AEB2 [13]: 0.0175 | Ave AEB [13]: 0.0215 | Signal to Background [13]: 1.29 | AEB1 [14]: 0.0097 | AEB2 [14]: 0.0091 | Ave AEB [14]: 0.0094 | Signal to Background [14]: 1.54 | AEB1 [15]: 0.126 | AEB2 [15]: 0.13 | Ave AEB [15]: 0.128 | Signal to Background [15]: 17.3 | AEB1 [16]: 0.0183 | AEB2 [16]: 0.0162 | Ave AEB [16]: 0.0172 | Signal to Background [16]: 1.05 | AEB1 [17]: 0.0441 | AEB2 [17]: 0.0461 | Ave AEB [17]: 0.0451 | Signal to Background [17]: 2.71 | AEB1 [18]: 0.014 | AEB2 [18]: 0.0114 | Ave AEB [18]: 0.0127 | Signal to Background [18]: 1.21 | AEB1 [19]: 0.0212 | AEB2 [19]: 0.0206 | Ave AEB [19]: 0.0209 | Signal to Background [19]: 1.27 | AEB1 [20]: 0.0168 | AEB2 [20]: 0.0179 | Ave AEB [20]: 0.0173 | Signal to Background [20]: 1.65 | AEB1 [21]: 0.0095 | AEB2 [21]: 0.009 | Ave AEB [21]: 0.0092 | Signal to Background [21]: 1.06 | AEB1 [22]: 0.0164 | AEB2 [22]: 0.0185 | Ave AEB [22]: 0.0175 | Signal to Background [22]: 1.06 | AEB1 [23]: 0.0107 | AEB2 [23]: 0.0084 | Ave AEB [23]: 0.0095 | Signal to Background [23]: 1.1
Substance: NB500-240 (Novus) (antibody)

AEB1 [1]: 0.0217 | AEB2 [1]: 0.0245 | Ave AEB [1]: 0.0231 | Signal to Background [1]: 1.03 | AEB1 [2]: 0.019 | AEB2 [2]: 0.021 | Ave AEB [2]: 0.02 | Signal to Background [2]: 0.94 | AEB1 [3]: 0.0264 | AEB2 [3]: 0.0248 | Ave AEB [3]: 0.0256 | Signal to Background [3]: 1.14 | AEB1 [4]: 0.0251 | AEB2 [4]: 0.0292 | Ave AEB [4]: 0.0271 | Signal to Background [4]: 1.45 | AEB1 [5]: 0.0192 | AEB2 [5]: 0.0198 | Ave AEB [5]: 0.0195 | Signal to Background [5]: 0.91 | AEB1 [6]: 0.0504 | AEB2 [6]: 0.053 | Ave AEB [6]: 0.0517 | Signal to Background [6]: 1.02 | AEB1 [7]: 0.0516 | AEB2 [7]: 0.0515 | Ave AEB [7]: 0.0516 | Signal to Background [7]: 1.03 | AEB1 [8]: 0.0412 | AEB2 [8]: 0.0418 | Ave AEB [8]: 0.0415 | Signal to Background [8]: 0.62 | AEB1 [10]: 0.0483 | AEB2 [10]: 0.0494 | Ave AEB [10]: 0.0489 | Signal to Background [10]: 0.97 | AEB1 [11]: 0.0337 | AEB2 [11]: 0.034 | Ave AEB [11]: 0.0339 | Signal to Background [11]: 1.59 | AEB1 [12]: 0.0503 | AEB2 [12]: 0.0488 | Ave AEB [12]: 0.0496 | Signal to Background [12]: 0.99 | AEB1 [13]: 0.0531 | AEB2 [13]: 0.0522 | Ave AEB [13]: 0.0527 | Signal to Background [13]: 1.05 | AEB1 [14]: 0.0243 | AEB2 [14]: 0.0204 | Ave AEB [14]: 0.0224 | Signal to Background [14]: 1.05 | AEB1 [15]: 0.0957 | AEB2 [15]: 0.0942 | Ave AEB [15]: 0.095 | Signal to Background [15]: 1.88 | AEB1 [16]: 0.0481 | AEB2 [16]: 0.0445 | Ave AEB [16]: 0.0463 | Signal to Background [16]: 0.69 | AEB1 [17]: 0.0616 | AEB2 [17]: 0.0585 | Ave AEB [17]: 0.0601 | Signal to Background [17]: 1.2 | AEB1 [18]: 0.0223 | AEB2 [18]: 0.0228 | Ave AEB [18]: 0.0225 | Signal to Background [18]: 1 | AEB1 [19]: 0.0418 | AEB2 [19]: 0.0409 | Ave AEB [19]: 0.0413 | Signal to Background [19]: 0.62 | AEB1 [20]: 0.0258 | AEB2 [20]: 0.0245 | Ave AEB [20]: 0.0252 | Signal to Background [20]: 1.12 | AEB1 [21]: 0.0178 | AEB2 [21]: 0.0198 | Ave AEB [21]: 0.0188 | Signal to Background [21]: 1.01 | AEB1 [22]: 0.0426 | AEB2 [22]: 0.0425 | Ave AEB [22]: 0.0426 | Signal to Background [22]: 0.64 | AEB1 [23]: 0.017 | AEB2 [23]: 0.0184 | Ave AEB [23]: 0.0177 | Signal to Background [23]: 0.95
Substance: GTX101092 (GeneTex) (antibody)
